Laboratory results: PMC12416549 (2024)
Residue numbers refer to the chain shown, from its start. In names and notes the source's numbering stands. Each block holds one binder with its values, some of them ahead of it.

Biological target: T1, TNFR1 (Homo sapiens, UniProt P19438)
T1 chain: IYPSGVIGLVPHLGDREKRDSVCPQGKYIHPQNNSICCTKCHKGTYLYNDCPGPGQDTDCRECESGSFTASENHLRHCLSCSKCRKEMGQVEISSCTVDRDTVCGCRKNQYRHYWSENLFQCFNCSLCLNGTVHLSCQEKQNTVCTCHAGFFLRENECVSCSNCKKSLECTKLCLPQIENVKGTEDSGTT
Experiment: yeast display SC50

B4: A42M (designed binder)
chain: MTLQELLREEALRRAEAEAFRYALELLAEKFPEQKEYLLDLMEEIESQIRSLSGVDVEDVRKFLDKEWAWVKELLAEHPAELAEVEAARAARLAELRAEVEAKVAA
apparent Kd (screen): 2.48 nM

B5: S47D (designed binder)
chain: B4 chain with M42A, S47D
apparent Kd (screen): 1.27 nM

B7: T2Y (designed binder)
chain: B4 chain with T2Y, M42A
apparent Kd (screen): 0.869 nM

B8: E16F (designed binder)
chain: B4 chain with E16F, M42A
apparent Kd (screen): 1.05 nM

B9: E43L (designed binder)
chain: B4 chain with M42A, E43L
apparent Kd (screen): 0.869 nM

B10: R50L (designed binder)
chain: B4 chain with M42A, R50L
apparent Kd (screen): 0.869 nM

B11: E46A (designed binder)
chain: B4 chain with M42A, E46A
apparent Kd (screen): 0.49 nM

B12: E58T (designed binder)
chain: B4 chain with M42A, E58T
apparent Kd (screen): 0.718 nM

B14: L38M (designed binder)
chain: B4 chain with L38M, M42A
apparent Kd (screen): 0.539 nM

B15: Q4F (designed binder)
chain: B4 chain with Q4F, M42A
apparent Kd (screen): 0.49 nM

B16: K35V (designed binder)
chain: B4 chain with K35V, M42A
apparent Kd (screen): 1.54 nM

B18: E29H (designed binder)
chain: B4 chain with E29H, M42A
apparent Kd (screen): 0.446 nM

B19: S53P (designed binder)
chain: B4 chain with M42A, S53P
apparent Kd (screen): 13.8 nM

B20: F20G (designed binder)
chain: B4 chain with F20G, M42A
apparent Kd (screen): 0.869 nM

B22: E25F (designed binder)
chain: B4 chain with E25F, M42A
apparent Kd (screen): 0.539 nM

B24: E18Q (designed binder)
chain: B4 chain with E18Q, M42A
apparent Kd (screen): 0.539 nM

B28: L24W (designed binder)
chain: B4 chain with L24W, M42A
apparent Kd (screen): 4.83 nM

B29: R14I (designed binder)
chain: B4 chain with R14I, M42A
apparent Kd (screen): 0.539 nM

B31: L52Y (designed binder)
chain: B4 chain with M42A, L52Y
apparent Kd (screen): 0.539 nM

B32: L38K (designed binder)
chain: B4 chain with L38K, M42A
apparent Kd (screen): 4.39 nM

B35: V55D (designed binder)
chain: B4 chain with M42A, V55D
apparent Kd (screen): 9.41 nM

B37: E33P (designed binder)
chain: B4 chain with E33P, M42A
apparent Kd (screen): 0.539 nM

B38: R13I (designed binder)
chain: B4 chain with R13I, M42A
apparent Kd (screen): 0.368 nM

B40: E25S (designed binder)
chain: B4 chain with E25S, M42A
apparent Kd (screen): 1.05 nM

B41: R8G (designed binder)
chain: B4 chain with R8G, M42A
apparent Kd (screen): 0.593 nM

B42: D56Q (designed binder)
chain: B4 chain with M42A, D56Q
apparent Kd (screen): 1.4 nM

B43: S47A (designed binder)
chain: B4 chain with M42A, S47A
apparent Kd (screen): 0.49 nM

Next, values leading:

apparent Kd (screen): 0.956 nM
B1: A87P (designed binder)
chain: B4 chain with M42A, A87P

apparent Kd (screen): 0.79 nM
B2: V85F (designed binder)
chain: B4 chain with M42A, V85F

apparent Kd (screen): 1.05 nM
B3: L75S (designed binder)
chain: B4 chain with M42A, L75S

apparent Kd (screen): 4.83 nM
B6: E67D (designed binder)
chain: B4 chain with M42A, E67D

apparent Kd (screen): 0.446 nM
B13: P79M (designed binder)
chain: B4 chain with M42A, P79M

apparent Kd (screen): 26.9 nM
B17: R61P (designed binder)
chain: B4 chain with M42A, R61P

apparent Kd (screen): 0.593 nM
B21: A69K (designed binder)
chain: B4 chain with M42A, A69K

apparent Kd (screen): 0.49 nM
B23: V100L (designed binder)
chain: B4 chain with M42A, V100L

apparent Kd (screen): 0.446 nM
B25: H78K (designed binder)
chain: B4 chain with M42A, H78K

apparent Kd (screen): 0.49 nM
B26: K66A (designed binder)
chain: B4 chain with M42A, K66A

apparent Kd (screen): 0.49 nM
B27: V60F (designed binder)
chain: B4 chain with M42A, V60F

apparent Kd (screen): 2.73 nM
B30: R61E (designed binder)
chain: B4 chain with M42A, R61E

apparent Kd (screen): 0.653 nM
B33: A69I (designed binder)
chain: B4 chain with M42A, A69I

apparent Kd (screen): 0.593 nM
B34: P79S (designed binder)
chain: B4 chain with M42A, P79S

apparent Kd (screen): 0.869 nM
B36: R61A (designed binder)
chain: B4 chain with M42A, R61A

apparent Kd (screen): 0.593 nM
B39: R92T (designed binder)
chain: B4 chain with M42A, R92T
